Assay results published in patent publication CN114573691A (EIGHT HOSPITALS IN AFFILIATED CITY OF GUANGZHOU MEDICAL; …, dated 2022).

Legend:
[1] = target: T1, 新冠病毒SARS-CoV-2变异毒株Omicron(B.1.1.529)S1抗原 (SARS-CoV-2, UniProt P0DTC2 16-685); assay: SPR (Biacore T200), S1 antigen coupled to CM5 chip, antibody as analyte
T1 construct: domain: S1; also called Omicron S1; Omicron(B.1.1.529)的S1蛋白

[2] = target: T2, 新冠病毒SARS-CoV-2变异毒株Delta(B.1.617.2)S1抗原 (SARS-CoV-2, UniProt P0DTC2 16-685); assay: as above
T2 construct: domain: S1; also called Delta S1

B1: 中和抗体YB9-258 (antibody, V domains shown)
VH: EVQLVESGGGLIQPGGSLRLSCAASGLTVSSNYMHWVRQAPGKGLEWVSVLYAGGSAFYADSVKGRFTISRNNSKNTLYLQMNSLRAEDTAIYYCARGLGDYLDSWGQGTLVTVSS
VL: DIQMTQSPSSVSASVGDRVTITCRASQGIGSWLAWYQQKPGKAPQLLIYAASTLQSGVPPRFSGSGSGTDFTLTITSLQPEDFASYYCQQANSVLALTFGGGTKVEIK
Kd [1]: 4.17 pM
Kd [2]: 833 pM

B2: 中和抗体YB13-208 (antibody, V domains shown)
V domain 1: QITLKESGPTLVKPTQTLTLTCTFSGLSLSTSGVSVGWIRQPPGKAPEWLALIYWDDDKRYSPSLTSRLSITKDTSKNQVVLTMTNMDPVDTATYYCAHPRYYGDSSGYYWIWGQGTMVTVSS
V domain 2: SYELTQPPSVSVSPGQTARITCSGDALPKQYAYWYQQKPGQAPVVVMYKTSERPSGIPERFSGSSSGTTVTLTISGVQAEDEADYYCQSADSSGFYVFGTGTQVTVL
Kd [1]: 3110 pM
Kd [2]: 639 pM
